{"source": "the DeepSol protein solubility set", "data": [{"assay": "soluble on expression in E. coli; label from the status in PepcDB or PDB records", "values": [{"sequence": "MGACPRFERASARGMIARNPIKQDPAMRNTQDDHSRFLSLVLRHQPETIGLQLDDQGWADIGELLARLAAKGRNLGRKQLEKIVLDNDKQRFAISEDGLRIRANQGHSIKIDLGLAACEPPDRLYHGTASRFLDAILAEGLRPGQRQHVHLSADGQTARKVGARHGKPVVLEIDARAMRQAGLAFYRSDNGVWLIDGVPPVFIRQTEARLEHHHHHH", "soluble on expression in E. coli": "soluble"}, {"sequence": "MRGLKTFSILGLIVALLLVAACGNTDNSSKKESSTKDTISVKDENGTVKVPKDAKRIVVLEYSFADALAALDVKPVGIADDGKKKRIIKPVREKIGDYTSVGTRKQPNLEEISKLKPDLIIADSSRHKGINKELNKIAPTLSLKSFDGDYKQNINSFKTIAKALNKEKEGEKRLAEHDKLINKYKDEIKFDRNQKVLPAVVAKAGLLAHPNYSYVGQFLNELGFKNALSDDVTKGLSKYLKGPYLQLDTEHLADLNPERMIIMTDHAKKDSAEFKKLQEDATWKKLNAVKNNRVDIVDRDVWARSRGLISSEEMAKELVELSKKEQK", "soluble on expression in E. coli": "not soluble"}, {"sequence": "MGSDKIHHHHHHMKAMAMTPKPTAAIVGMGDAYASMQDRKDPIQLAVAATHKALADAGITKDQVDAVFTGRSPWADKRSQWSNIFCSHMHMPVTITSEITMHGAGLNATVAMAAQMIAAGRAQYVLCLQSDATELFVDAVAMGAEADADPQFEIPYGPTIPALYAQAACRYFHEFGITEEDLADVAIANQSWAMHHPHAAKARFGSIDRAKVLSSPYVATPLRRWMCSTWGGGTGGALVVTSVDNARTAQDPVYVMGYGSATTHEYLGDRMNMRRCRYPSLGAFPNLTHTATAEAARQAYESSGLTPADIDMAQISVNFAHMGPLIMEDLGFAAKGRGMDLYRAGRTGVDGDLPIDTNGGWLSFGQPGISCNMDSYAEAVRQLRGNALGRAPARRPRTVLVQGSGGMLAAGSVTILASEL", "soluble on expression in E. coli": "not soluble"}, {"sequence": "MRNSLFTTLFFGLAALVMVLNAQYTSELEEDEKRGGARAMLHKRGGARAFSADVGDDYKRGGARAFYDEKRGGARAFLTEMKRGGARVFQGFEDEKRGGARAFMMDKRGGGRAFGDMMKRGGARAFVENSKRDEDWVIRPFEDDRLEKRGGGRSFPVKPGRLDD", "soluble on expression in E. coli": "not soluble"}, {"sequence": "MKRIGILTSGGDAPGMNAAVRAVTRVAIANGLEVFGIRYGFAGLVAGDIFPLESEDVAHLINVSGTFLYSARYPEFAEEEGQLAGIEQLKKHGIDAVVVIGGDGSYHGALQLTRHGFNSIGLPGTIDNDIPYTDATIGYDTACMTAMDAIDKIRDTASSHHRVFIVNVMGRNCGDIAMRVGVACGADAIVIPERPYDVEEIANRLKQAQESGKDHGLVVVAEGVMTADQFMAELKKYGDFDVRANVLGHMQRGGTPTVSDRVLASKLGSEAVHLLLEGKGGLAVGIENGKVTSHDILDLFDESHRGDYDLLKLNADLSR", "soluble on expression in E. coli": "soluble"}, {"sequence": "MKHLFTRIFLFHLLLIGTVQVTAQNKKSGNPILPGFHADPEVLYSHQTKRYYIYPTSDGFPGWGGSYFKVFSSKNLKTWKEETVILEMGKNVSWANGNAWAPCIEEKKIDGKYKYFFYYSANPTTNKGKQIGVAVADSPTGPFTDLGKPIITSSPTGRGQQIDVDVFTDPVSGKSYLYWGNGYMAGAELNDDMLSIKEETTVVLTPKGGTLQTYAYREAPYVIYRKGIYYFFWSVDDTGSPNYHVVYGTAQSPLGPIEVAKEPIVLIQNPKEEIYGPAHNSILQVPGKDKWYIVYHRINKNHLNDGPGWHREVCIDRMEFNPDGTIKQVIPTP", "soluble on expression in E. coli": "not soluble"}, {"sequence": "MAHHHHHHMAKLSKQQKKQMYIEKLSSLIQQYSKILIVHVDNVGSNQMASVRKSLRGKATILMGKNTRIRTALKKNLQAVPQIEKLLPLVKLNMGFVFCKDDLSEIRNIILDNKSPAPARLGVIAPIDVFIPPGPTGMDPSHTSFFQSLGISTKIVKGQIEIQEHVHLIKQGEKVTASSATLLQKFNMKPFSYGVDVRTVYDDGVIYDAKVLDITDEDILEKFSKGVSNVAALSRATGVITEASYPHVFVEAFKNIVALIIDSDYTFPLMENIKKMVENPEAFAAVAAPASAAKADEPKKEEAKKVEEEEEEEEDGFMGFGMFD", "soluble on expression in E. coli": "not soluble"}]}]}
